Measurements from patent publication US20250332297A1, “DLL3-SPECIFIC BINDING CONSTRUCTS AND THEIR USE IN RADIOTHERAPY” (MOLECULAR PARTNERS AG, priority 2024, published 2025).
Read-outs that look alike come from different tables or passages of the source.

T1: human DLL3 expressed on HEK293T-huDLL3 cells (Homo sapiens, UniProt Q9NYJ7)
T1 construct: expressed in transfected cells; host or cells: HEK293T-hDLL3
T1 sequence (Q9NYJ7 27-618): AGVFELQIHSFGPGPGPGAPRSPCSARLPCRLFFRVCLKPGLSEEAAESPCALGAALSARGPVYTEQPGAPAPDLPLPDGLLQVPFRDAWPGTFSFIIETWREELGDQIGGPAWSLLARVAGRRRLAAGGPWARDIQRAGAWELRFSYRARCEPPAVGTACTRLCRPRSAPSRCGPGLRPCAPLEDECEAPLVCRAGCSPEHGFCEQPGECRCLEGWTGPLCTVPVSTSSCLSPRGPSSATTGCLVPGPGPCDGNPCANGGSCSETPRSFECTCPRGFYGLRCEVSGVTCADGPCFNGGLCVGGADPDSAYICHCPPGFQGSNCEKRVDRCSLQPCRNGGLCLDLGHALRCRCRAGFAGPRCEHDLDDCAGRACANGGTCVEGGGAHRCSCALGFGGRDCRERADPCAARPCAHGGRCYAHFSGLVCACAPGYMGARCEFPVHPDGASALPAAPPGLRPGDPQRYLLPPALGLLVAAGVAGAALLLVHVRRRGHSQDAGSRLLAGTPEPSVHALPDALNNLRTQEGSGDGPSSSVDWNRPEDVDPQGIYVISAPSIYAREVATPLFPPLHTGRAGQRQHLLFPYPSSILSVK

T2: NCI-H82 cells expressing human DLL3 (Homo sapiens, UniProt Q9NYJ7)
T2 construct: a human lung carcinoma cell line which endogenously expresses DLL3 on the surface; host or cells: NCI-H82
T2 sequence (Q9NYJ7 27-618): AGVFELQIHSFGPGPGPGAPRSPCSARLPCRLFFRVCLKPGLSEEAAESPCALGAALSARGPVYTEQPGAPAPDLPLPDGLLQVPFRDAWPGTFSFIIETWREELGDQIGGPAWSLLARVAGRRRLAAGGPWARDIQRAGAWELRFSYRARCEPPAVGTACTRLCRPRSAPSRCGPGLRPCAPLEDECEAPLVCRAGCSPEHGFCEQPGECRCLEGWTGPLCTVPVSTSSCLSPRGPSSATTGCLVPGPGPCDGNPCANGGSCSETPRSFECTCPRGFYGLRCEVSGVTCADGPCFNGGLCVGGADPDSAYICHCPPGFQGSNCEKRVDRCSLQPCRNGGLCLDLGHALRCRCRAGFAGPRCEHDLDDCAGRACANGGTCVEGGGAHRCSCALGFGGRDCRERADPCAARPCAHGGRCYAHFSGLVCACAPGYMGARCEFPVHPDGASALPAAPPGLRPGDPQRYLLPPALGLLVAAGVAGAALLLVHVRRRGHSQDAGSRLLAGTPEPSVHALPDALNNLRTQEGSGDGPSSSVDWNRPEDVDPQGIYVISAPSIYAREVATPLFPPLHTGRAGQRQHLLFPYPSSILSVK


Tests used:
[1] = target: T1, human DLL3 expressed on HEK293T-huDLL3 cells; assay: Cell binding titration on HEK293T-hDLL3 cells; assay type: cell-based; details: presence of human serum albumin (10 μM in FIG. 9 legend, 10 pM in the source), read-out: Cell binding EC50, with HSA
hDLL3-MC38 tumor model = assay: Biodistribution of radio-labelled DARPin conjugates in hDLL3-MC38 tumor model; assay type: in vivo, mouse; details: Pb-212 DOTAM conjugate 0.01 mg/kg (10 μCi) i.v., s.c. hDLL3-MC38
Excerpt: hDLL3-MC38 tumor model. ATH mice were purchased from Envigo. General handling and maintenance of mice was done as described above for the NCI-H82 tumor model. hDLL3-MC38 cells were purchased from Biocytogen (Catalog No. 311448). […] Cells were quantified using Countess cell counter.
Biodistribution study. […] Based on immunohistochemistry analyses, the hDLL3-MC38 tumors have a higher level of human DLL3 expression than the NCI-H82 tumors described in Example 3 (data not shown). Biodistribution was monitored at 1 h, 4 h and 24h post-injection. Mice were euthanized by CO2 inhalation and cervical dislocation.
Mice were euthanized by CO2 inhalation and cervical dislocation.

mouse serum albumin = target: T3, mouse serum albumin (Mus musculus, UniProt P07724); assay: SPR binding to mouse serum albumin (Example 1); details: immobilized MSA, 1:1 Langmuir, Table 2
T3 construct: purchased Sigma-Aldrich
T3 sequence (P07724 25-608): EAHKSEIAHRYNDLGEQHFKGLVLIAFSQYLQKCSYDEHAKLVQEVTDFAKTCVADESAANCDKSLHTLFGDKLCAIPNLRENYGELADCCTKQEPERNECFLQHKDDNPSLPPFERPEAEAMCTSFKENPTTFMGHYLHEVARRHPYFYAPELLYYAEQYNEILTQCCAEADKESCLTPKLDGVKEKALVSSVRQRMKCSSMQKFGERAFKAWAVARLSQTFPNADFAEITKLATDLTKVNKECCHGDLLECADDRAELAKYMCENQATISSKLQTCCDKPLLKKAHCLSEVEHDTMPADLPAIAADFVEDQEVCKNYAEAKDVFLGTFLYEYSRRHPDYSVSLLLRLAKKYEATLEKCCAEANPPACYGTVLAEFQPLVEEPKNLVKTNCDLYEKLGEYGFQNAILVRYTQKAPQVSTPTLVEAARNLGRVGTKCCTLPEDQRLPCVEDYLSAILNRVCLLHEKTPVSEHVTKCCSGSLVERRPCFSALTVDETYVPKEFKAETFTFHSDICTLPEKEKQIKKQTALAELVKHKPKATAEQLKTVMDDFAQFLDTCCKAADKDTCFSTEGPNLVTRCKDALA
Experimental: (§1) Similarly, a SPR assay was used to determine the binding kinetics to human or mouse serum albumin. […] All analytes (3-fold dilution ranging from 1000-12.35 nM) were injected in succession for 240 s (25 μl/min) and dissociation was recorded for 600 s (25 μl/min). […] The obtained SPR traces were used to determine the ankyrin repeat protein-serum albumin interaction parameters, summarized in Table 2.

human serum albumin = human serum albumin (Homo sapiens, UniProt P02768); assay: SPR binding to human serum albumin (Example 1); parameters: purchased CSL; details: immobilized HSA, 1:1 Langmuir, Table 2
Experimental: as §1

[2] = target: T2, NCI-H82 cells expressing human DLL3; assay: Cell binding titration on NCI-H82 cells; assay type: cell-based
Experimental: Furthermore, cell binding titration assays were also performed with selected two domain (2D) designed ankyrin repeat proteins to determine binding to human cells expressing DLL3 endogenously, in absence and presence of human serum albumin. For this purpose, NCI-H82 cells were used, a human lung carcinoma cell line which endogenously expresses DLL3 on the surface. […] A non-binding DARPin comprising SEQ ID NO: 22 was used as a negative control.
In brief, 1×10^5 cells/well were resuspended in 100 μl DARPin dilution (500 nM, 1:5 serial diluted in PBS, 2% FBS) and incubated for 1 h at 4° C. This step was performed in absence and presence of 10 μM Human Serum Albumine (CSL Behring #150570). Cells were washed twice with PBS, 2% FBS and resuspended in 100 μl anti-DARPin antibody (rabbit anti-DARPin 1.4.8) and LIVE/DEAD cell stain (1:1000, Biolegend #423106). After incubation and washing, cells were incubated with detection antibody for 30 minutes (Goat […] IgG (H+L), AF647, Thermo Fisher #21445). Cells were fixed (Paraformaldehyde Solution, TCL119, LucernaChem) and acquired at Attune N×T (Thermo Life Technologies). Raw fcs files were exported and analyzed using FlowJo software. MFI values of live AF647-positive cells were exported from FlowJo and plotted using GraphPad Prism software.

[3] = Thermal stability by Circular Dichroism (CD) spectroscopy; assay type: physicochemical; details: CD at 222 nm, 20° C. to 90° C., 2 μM in PBS pH7.4; DARPins with C-terminal Cysteine-containing tag (SEQ ID NOs: 15, 16, 18)
Experimental: Labelling of proteins conjugated to a chelator with a radionuclide may require harsh conditions, including high temperatures. The thermal stability and the propensity to unfold/refold of 2D DARPins MAM279, MAM283 and MAM282 were assessed using Circular Dichroism (CD) spectroscopy.
Samples of the DARPins were diluted to 2 μM in PBS, pH7.4. The assessment was done using a Jasco J-815 spectrophotometer. The Tm (melting temperature) of the selected proteins was determined by CD as a parameter for thermal stability. In brief, the ellipticity was recorded at […] and a temperature range from 20° C. to 90° C. was applied followed by reverse scan to record the refolding behavior. The Tm of the selected ankyrin repeat protein constructs is the midpoint of the protein unfolding. Spectra from 190-250 nm were recorded before and after the temperature scan.

[4] = athymic nude mice, 24 h, Example 9
[5] = athymic nude mice, 4 h, Example 7
[6] = athymic nude mice, 24 h, Example 7
[7] = athymic nude mice, 4 h, Example 9

Molecule | EC50 [1] [nM] | T:K ratio (hDLL3-MC38 tumor model; [4]) | Kd (mouse serum albumin) [nM] | Koff MSA (mouse serum albumin) [s⁻¹] | Kon MSA (mouse serum albumin) [M⁻¹ s⁻¹] | Blood % ID/g (hDLL3-MC38 tumor model; [5]) [% ID/g] | Kidneys % ID/g (hDLL3-MC38 tumor model; [5]) [% ID/g] | Tumors % ID/g (hDLL3-MC38 tumor model; [5]) [% ID/g] | Blood % ID/g (hDLL3-MC38 tumor model; [6]) [% ID/g] | Kidneys % ID/g (hDLL3-MC38 tumor model; [6]) [% ID/g] | Tumors % ID/g (hDLL3-MC38 tumor model; [6]) [% ID/g] | Kd (human serum albumin) [nM] | Koff HSA (human serum albumin) [s⁻¹] | Kon HSA (human serum albumin) [M⁻¹ s⁻¹] | further results
Rova: Rova antibody, DLL3-binding benchmark antibody used as positive control and comparison (antibody, chains of the INN, looked up, V domains shown) VH: QVQLVQSGAEVKKPGASVKVSCKASGYTFTNYGMNWVRQAPGQGLEWMGWINTYTGEPTYADDFKGRVTMTTDTSTSTAYMELRSLRSDDTAVYYCARIGDSSPSDYWGQGTLVTVSS VL: EIVMTQSPATLSVSPGERATLSCKASQSVSNDVVWYQQKPGQAPRLLIYYASNRYTGIPARFSGSGSGTEFTLTISSLQSEDFAVYYCQQDYTSPWTFGQGTKLEIK | 0.3 |  |  |  |  |  |  |  |  |  |  |  |  |  | 
MAM279 conjugate: SEQ ID NO: 15 conjugated to DOTAM-maleimide, labelled with Pb-212 (natural lead in PK studies) (conjugate, DOTAM-maleimide, Pb-212 label; Ankyrin repeat protein with tag (GS-MAM279-tag)) GSDLGKKLLEAARAGQDDEVRELLKAGADVNAKDYFSHTPLHLAARNGHLKIVEVLLKAGADVNAKDFAGKTPLHLAADAGHLEIVEVLLKAGADVNAQDIFGKTPADIAADAGHEDIAEVLQKAAGSPTPTPTTPTPTPTTPTPTPTGSDLGKKLLAAAAQGQDDEVRELLKAGANVNAKDLFGYTPLHLAAWRGHLEIVEVLLKAGADVNAKDAAGETPLHLAAWFGHLEIVEVLLKAGADVNAQDLQGKTPADLAAKEGHEDIAEVLQKAAGSGSC |  | above 1 |  |  |  |  |  |  |  |  |  |  |  |  | 
MAM160: Two domain (2D) ankyrin repeat protein: serum albumin-specific domain (SEQ ID NO: 7), PT linker, DLL3-specific domain MAM120 (protein, Ankyrin repeat protein (MAM160)) DLGKKLLEAARAGQDDEVRELLKAGADVNAKDYFSHTPLHLAARNGHLKIVEVLLKAGADVNAKDFAGKTPLHLAADAGHLEIVEVLLKAGADVNAQDIFGKTPADIAADAGHEDIAEVLQKAAGSPTPTPTTPTPTPTTPTPTPTGSDLGTKLLSAAADGQDDEVRELLQAGADVNAKDLFGYTPLHLAAWRGHLEIVEVLLEAGADVNAKDAAGLTPLHLAAWFGHLEIVEVLLEAGADVNAQDVQGVTPADLAAKEGHEDIAEVLQQAA | 36.6 |  | 336 | 0.0271 | 80430 | 17.9 | 11.6 | 18.8 | 1.9 | 18 | 28.9 | 95.9 | 0.0105 | 110000 | Blood % ID/g (hDLL3-MC38 tumor model; athymic mice, 1 h, Example 4): 38 % ID/g; Kidneys % ID/g (hDLL3-MC38 tumor model; athymic mice, 1 h, Example 4): 12 % ID/g; T:K ratio (hDLL3-MC38 tumor model; athymic mice, 1 h, Example 4): 0.58; Tumors % ID/g (hDLL3-MC38 tumor model; athymic mice, 1 h, Example 4): 7 % ID/g; Blood % ID/g (hDLL3-MC38 tumor model; athymic mice, 4 h, Example 4): 25 % ID/g; Kidneys % ID/g (hDLL3-MC38 tumor model; athymic mice, 4 h, Example 4): 12 % ID/g; T:K ratio (hDLL3-MC38 tumor model; athymic mice, 4 h, Example 4): 1.42; Tumors % ID/g (hDLL3-MC38 tumor model; athymic mice, 4 h, Example 4): 17 % ID/g; Blood % ID/g (hDLL3-MC38 tumor model; athymic mice, 24 h, Example 4): 3 % ID/g; Kidneys % ID/g (hDLL3-MC38 tumor model; athymic mice, 24 h, Example 4): 17 % ID/g; T:K ratio (hDLL3-MC38 tumor model; athymic mice, 24 h, Example 4): 1.53; Tumors % ID/g (hDLL3-MC38 tumor model; athymic mice, 24 h, Example 4): 26 % ID/g
MAM279: Two domain (2D) ankyrin repeat protein: serum albumin-specific domain (SEQ ID NO: 7), PT linker, DLL3-specific domain of MAM093 (protein, Ankyrin repeat protein (MAM279)) DLGKKLLEAARAGQDDEVRELLKAGADVNAKDYFSHTPLHLAARNGHLKIVEVLLKAGADVNAKDFAGKTPLHLAADAGHLEIVEVLLKAGADVNAQDIFGKTPADIAADAGHEDIAEVLQKAAGSPTPTPTTPTPTPTTPTPTPTGSDLGKKLLAAAAQGQDDEVRELLKAGANVNAKDLFGYTPLHLAAWRGHLEIVEVLLKAGADVNAKDAAGETPLHLAAWFGHLEIVEVLLKAGADVNAQDLQGKTPADLAAKEGHEDIAEVLQKAA | 16.3 | 2.5 | 367 | 0.0335 | 91240 | 21.2 | 14.3 | 20.6 | 8.1 | 23.3 | 57.6 | 75 | 0.00923 | 123000 | EC50 ([2]; absence of human serum albumin, read-out: Cell binding EC50, w/o HSA): 2.5 nM; EC50 ([2]; presence of 10 μM human serum albumin, read-out: Cell binding EC50, with HSA): 2.1 nM; Blood % ID/g (hDLL3-MC38 tumor model; [7]): 21 % ID/g; Kidneys % ID/g (hDLL3-MC38 tumor model; [7]): 14 % ID/g; T:K ratio (hDLL3-MC38 tumor model; [7]): 1.5; Tumors % ID/g (hDLL3-MC38 tumor model; [7]): 21 % ID/g; Blood % ID/g (hDLL3-MC38 tumor model; [4]): 8 % ID/g; Kidneys % ID/g (hDLL3-MC38 tumor model; [4]): 23 % ID/g; Tumors % ID/g (hDLL3-MC38 tumor model; [4]): 58 % ID/g; melting temperature (Tm) [3]: above 85 °C
